Measured values: the nanobody polyreactivity screen of Harvey et al. (2022)

Assay: yeast display, Sf9 membrane polyspecificity reagent, FACS + sequencing; frameworks hold sequencing errors
Procedure, shortened: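 Using colony PCR, genes from sorted yeast display clones were amplified, then sequenced on MiSeq at 2 × 250 and filtered by CDR length. The clones had been stained with 10% biotinylated, detergent-solubilized Sf9 membrane reagent for 1 hour at 4 °C and sorted by FACS into low and high (top ~1%) gates on anti-HA and streptavidin fluorescence. Polyreactivity labels come from the gate of origin.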

Sequence | polyreactivity (PSR sort gate)
QVHLVESGGGLVQAGGSLRLSCAASGLIFFKYAMGWYRQETGKESELVAANSSSGGRTSYADSVKGRFTISRDNAKNTVYLQMNSEKPEDTAVYYCNVKPSASYIRYNYRYYYWGQGTHVTVSS | high polyreactivity
QVQLVESGGGLVQAGGSLRLSCAASGSTFPRYAMGWYIPAPGNERELVAAISSGGSTYYADSVKGRFTISRDNAKNTVYLQMNSLKPEDTAVYYCNARRSRSRYDYWGQGTQVTVSS | high polyreactivity
QVQLVESGGGLVQAGGSLRLSCAASGRIFNAYAIGWYRQAPGKERELVAAITVSGTRTYYADSVKGRFTISRDNAKNTVYLQMNSLKPEDTAVYYCAADIYHQPRYKYYYWGQGTQVTVSS | high polyreactivity
QVQLVESGGGLVQAGGSLRLSCAASGRTFWWYTMGWYRQAPGKERELVAVISSTGGRTYYADSVKGRFTISRDNAKNTVYLQMNSLKPEDTSVYYCAAEYVSAKWEYGYWGQGTQVTVSS | low polyreactivity
QVQLVESGGGLVHAGGSLRLSCAASGFTFAQNAMGWYRQATGKEREWVAAITRSGARTYYADSVKGRFTISRDNAKNTVYLLMNSLKPEDTPVYYCNRDASRKYGYWGQGTQVTVSS | high polyreactivity
QVQLVESGGGLVQAGGSLRLSCAASGRIFYQNAMGWYRQAPGKERELVAAISRGDSTYYADSVRGRFTSSRDNAKNTVFLQMNSLKPEDTAVYYCAARRFSYWGKYGYWGQGTQVTVSS | high polyreactivity
QVQLVESGGGLVQAGGSLRLSCAASGYTFTGYALGWYRQAPGKERELVAAITSIGGSTYYADSVKGRFTISRDNAKNTVYLQMNSLKPEDTAVYYCAAEGDYVYDMDYWGQGTQVTVSS | low polyreactivity
QVQLVESGGGLVQAGGSLRLSCAASGSIFRSNTMGWYRQAPGKERELVAGISYSGGSTYADSVKGRFTISRDNAKNTVYLQMNSLKTEDTAVYYCARRVYSYVVLYFSYYYWGQGTQVTVSS | low polyreactivity
QVQLVESAGGLVQAGGSLRLSSAASGIIFSEYAMGWYRPAPGKERELVAAISKSGGRTYYADSVKGRFTISGVNAKNTVDLQMNSLKPEDTAVYYCAARHAPILGDHGMKYWGQGTQVTVSS | high polyreactivity
QVKLVESGGGLVQEGGSLRLSCAASGRICGNYSMGWYRQAPGKERELVAAIDLSGDSTYYADSVKGRFTISRDNAKNTVYLQMNSLKPEDTAVYYCAATDWFSEYYWGQGTQVTVSS | low polyreactivity
QVQLVESGGGLVQAGGSLRLSCAASGIIFREYAMGWYRQAPGKERELVAAISKSGGSTYYADSVKGRFTISRDNAKNTVYLQMNSLKPEDTAVYYCAARLGTFSIPMYYWGQGTQVTVSS | high polyreactivity
QVQLEESGGGLVQAGGSLRLSCAASGFTFRAYAMGWYRQAPGKERELVAANTYSGDRTYYADSVKGRFTITRDNAKKTVYLQMNSLKPEDTAVYYCAAYGAKVNRPGYYYWGQGTQVTVSS | high polyreactivity
QVQLVESGGCLVQAGGSLRLSCAASGSTFWPYAMGWYRQAPGKERELVAAITSSGGSTYYADSVKGRFTISRDNAKNTVYLQMNSLKPEDTEVYYCAADWSNLGAYDYWGQGTQVTVSS | low polyreactivity
QVQLVESGGGLVQAGGSLRLSCAASGSIFYEYAMGWYRKAPGKEREFVAAISSSGGSTYYADSVKGRFTISRDNAKNTVYLQMNSLKPEDTAVYYCATQSSVLSWWYDYWGQGTQVTVSS | low polyreactivity
QVQLVESGGGLVQAGRSLRLSCAASGFTFRGYAMGWYRQAPGKERELVAAISVRGDSTYYADSVKGRFTISRDNAKNTVYLQMNSLKPEDTAVYYCNAALLGKQYYSNPNYDYWGQGTQVTVSS | high polyreactivity
QVQLVESGGGLVQAGGSLRLSCAASGFTIIYNAMGWYSQAPGKERELVAAISSGGSTYYADSVKGRFTISRDNAKNTVYFQMNSLKPVDTAVYYCNADVGFFNSGYEDSDYWGQGTQVTVSS | low polyreactivity

Sequence | polyreactivity (PSR sort gate)
QVQLVESGGGLVQAGGSLRLSCAASGRTFYNNAMGWYRQAPGKERELVAVISRGGTTYYPDSVKGRFTISRDNAKNTVYLQMNSLKAEDTSVYYCAKQVPSGDSSSQMGSWGQGTQVTVSS | low polyreactivity
QVQLVDSCGGLVQAGGSLRLSFAASGRIYGPYAMGWYRQAPGKERELVAAISFSGSGTYYADSVKGRFTISRDNAKNTVYLQMNSLKPEDTAVYYCAADRWAHTHRLGYWGQGTQVTVSS | low polyreactivity
QVQLVESGGGLVQAGGSLRLSCAASGIIFDEYAMGWYRQAPGKERELVAAITWSGGSTYYADSVKGRFTISRDNAKNTVYLQMNSLKPEDTAVYYCNAVQSDEIAYGDTRLDYWGQGTQVTVSS | low polyreactivity
QVQLVESGGGLVQAGGSLRLSCAASGFAFSYYAMGWYRQATGKEREFVASIDWSGGSTYYADSVKGRFTISRDNAKNTVYLQLNSLKPEDTAVYYCAAELDYFPGYDYWGQGTQVTVSS | low polyreactivity
QDHIVESGGGLVQAGGSLRLSCAASGSTFKLYAMGWYRQAPGKERELVAAITRSGTRTYYADSVKGRFTISRDNAKNTVYLQMNILKPEDTAVYYCAADGYRISGYDYWGQGTQVTVSS | high polyreactivity
QVQLVESGGGLVQAGGSLRLSCAASGRIFVVNAMGWYRQAPGTERELVAAITRRGGSTYADSVKGRFTISRDNAKNTVYLQMNSLKPEDTAVYYCNAESYYGIFRYKYDYWGQGTQVTVSS | high polyreactivity
QVQLVESGGGLVQAGGSLRLSCAASGRTFVYYAMGWYRQAPGKERELVAAITSGGSTNYADSVKGRFTISRDNAKNTVYLQMNSLKPEDTAVYYCNAYGVSWFYYTWKYDYWGQGTQVTVSS | low polyreactivity
QVQRVESAGCLVQAGVSLRLSCPPSRRIFSRYAIGWYRQAPGKERELVAAISWSGGSTYYADSVKGRFTISRDNAMNTVYLQLIILKPEDTAVYYCAARRSYSYGSWGQGTQVTVSS | high polyreactivity
QVQLVESGGGLVQAGGSLRLSCAASGSIFQHYAMGLYRQAPGKERELVAAISYDTTSTYYADSVKGRFTISRDNAKNTVYLQMNSLKPEDTAVYYCNTYPEVYGPFQYDYWGQGTQVTVSS | low polyreactivity
QVQLLESRGGLVQAGGSLRLSCAASGRTIYTYAMGWYRQAPRTVRELVAAITYRGGNTYYADSVKGRFTISRDNAKYTVYLQMNSLKAEDTAVYDCIRRVAYLSGYSYDYWGQGTQVTVSS | high polyreactivity
QVQLVESGGGLVQAGGSLRLSCAASGRIFDFNAMGWYRQAPGKERELVAAITWSGTSTYYADSVKGRFTISRDNAKNTVYLQMNSLKPEDTAVYYCAVDYSPWWAFSYSDYYYWGQGTQVTVSS | high polyreactivity
QVQLVESGGGLVQAGGSLRISCAASGRTFRYYGMGWYRQPPAKERVVAAITWSGDTTYYADSVKGRFTISRDNAKNTVYLQMNSLKPEDTAVYYFAAQSWHRYYYWGQGTQVTVSS | high polyreactivity
QVQLVESGGGLVQAGGSLRLSCAASGITFYGYAMGWYIQAPGKERELVASITSTGSTNYADSVKGRFTISRDNAKNTVYLQMNSLKPEDTAVYYCAARYREVYRSKRKLGYWGQGTQVTVSS | high polyreactivity
QVQLVESGGGLVQAGGSLRLSCAASGRIFGYYAMVCYRQAPGKERELVAAISSGGGSTYYADSVKGRFTISRDNAKNTVYLQMNSLKPEDTAVYYCIVAYRWSTRYDYWGQGTQVTVSS | high polyreactivity
QVQLVESGGCLVQAGGSLRLSCAASGRIFRYNTMGWYRQAPGKEREFVASISNGGSTNYADSVKGRFTISRDNAKNTVYLQMNSLKPEDTAVYYCNADVPSDGYPGYPGGFESWGQGTQVTVSS | low polyreactivity
QVQHVESGGGLDQAGGSLRLRCAAYGFTFSFYAMGWYRQEPGKERELVAAISYSGGITYYADSVKGRFTISRDNAKNTVYLQMNSLKPEDTAVYYCAAVPYYSKGSSLYNSGNNYWGQGTQVTVSS | low polyreactivity
